Results as given in US5804688A, “Compounds and compositions for delivering active agents” (Emisphere Technologies, Inc., priority 1997, dated 1998).
Where two headings read alike, the source gives them in different places.

Assays:
[1] = rat, in vivo, 50 mg/kg
Experimental: (§1) Rats were administered, orally and by intracolonic instillation, dosing solutions of 1 mg/kg of interferon and no carrier.

[2] = In vivo interferon delivery in rats (serum interferon, ELISA); conditions: 1 mg/kg interferon, no carrier
Experimental: as §1

Mean peak serum interferon concentration [1]	Compound	Mean peak serum interferon concentration ([2]; intracolonic (IC))	Mean peak serum interferon concentration ([2]; oral (PO))
2611±695	O=C(O)CCCc1ccc(NC(=O)COc2ccccc2)cc1 [Compound 9]		
	interferon	79±100	1951±1857
